# Target: SARS-CoV-2 Spike protein (Wuhan-1 isolate) on VSV pseudovirus particles (SARS-CoV-2) (UniProt P0DTC2)
# Assay: cell-based or functional assay
row,Substance,IC50 in pseudovirus assays [µg/mL]
1,"REGN10987 (benchmark, human IgG1) (antibody)",0.45
2,"REGN10933 (benchmark, human IgG1) (antibody)",0.67
